Test results published in paper doi:10.1101/2021.07.15.452465 (2021).
Like-named read-outs stand apart in the source and are kept apart here.

B2: A. fumigatus CBC consisting of the subunits HapB^230-299, HapC^40-137 and HapE^47-164 (complex)
chain 1: not shown
chain 2: KEQDRWLPIANVARIMKLALPENAKIAKEAKECMQECVSEFISFITSEASEKCQQEKRKTVNGEDILFAMTSLGFENYAEALKIYLSKYRETQSARGE
chain 3: GTWANVNQGLQGTARDILTTYWQHIINHLESDNHDYKIHQLPLARIKKVMKADPEVKMISAEAPILFAKGCDIFITELTMRAWIHAEDNKRRTLQRSDIAAALSKSDMFDFLIDIVPR

Tests used:
[1] = target: B2; assay: SPR
[2] = target: B2; assay: SPR; remark: listed apart in the source
[3] = target: B2; assay: SPR; remark: listed apart in the source
[4] = target: B2; assay: SPR; remark: listed apart in the source
[5] = target: T1, A. fumigatus HapX^24-158 ΔT36-I42 (Aspergillus fumigatus, UniProt Q4WER3 24-158, ΔT36-I42); assay: SPR; CBC preformed on AfucccA 37 bp DNA
[6] = target: A. fumigatus HapX^24-158 R50A (Aspergillus fumigatus, UniProt Q4WER3 24-158, R50A); assay: SPR; CBC preformed on AfucccA 37 bp DNA
[7] = target: A. fumigatus HapX^24-158 R45A (Aspergillus fumigatus, UniProt Q4WER3 24-158, R45A); assay: SPR; CBC preformed on AfucccA 37 bp DNA
[8] = target: A. fumigatus HapX^24-158 W40A (Aspergillus fumigatus, UniProt Q4WER3 24-158, W40A); assay: SPR; CBC preformed on AfucccA 37 bp DNA
[9] = target: A. fumigatus HapX^24-158 K38E (Aspergillus fumigatus, UniProt Q4WER3 24-158, K38E); assay: SPR; CBC preformed on AfucccA 37 bp DNA
[10] = target: T1, A. fumigatus HapX^24-158 ΔT36-I42; assay: SPR; CBC preformed on Afucyp51A 37 bp DNA

B1: A. fumigatus HapX^24-158 wild type (domain or fragment)
chain: SPSPGPGTPGSITSKEWVIPPRPKPGRKPATDTPPTKRKAQNRAAQRAFRERRAARVNELEEQIKKIEDEHEIHIAAFKEQITNLSREVEQCRSEMTWWRDRCHALEKEVSVERSAKEAIVKEFRSSLSDREAVR
Kd [1]: 0.34 nM | Kd [2]: 28.3 nM | Kd [3]: 0.9 nM | Kd [4]: 22.7 nM

B2
Kd [5]: 136 nM | Kd [6]: 3.93 nM | Kd [7]: 2.86 nM | Kd [8]: 13.2 nM | Kd [9]: 3.76 nM | Kd [10]: 511 nM
